According to patent US20120244144A1 (University of Texas, published 2012):
Numbering of substitutions follows the chain as printed.

Columns and labels:
PTx-S1A (1-220) = biological target: T1, PTx-S1A (1-220) (Bordetella pertussis, UniProt P04977 36-255, M194I); experiment: SPR
T1 sequence: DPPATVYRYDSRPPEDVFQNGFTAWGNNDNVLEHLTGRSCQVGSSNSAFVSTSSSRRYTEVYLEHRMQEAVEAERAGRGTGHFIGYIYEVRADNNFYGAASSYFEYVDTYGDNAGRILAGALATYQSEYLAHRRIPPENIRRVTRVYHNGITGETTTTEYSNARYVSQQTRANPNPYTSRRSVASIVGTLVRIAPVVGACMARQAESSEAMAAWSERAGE

PTx-S1D (1-220) = biological target: T2, PTx-S1D (1-220) (Bordetella pertussis, UniProt P04977 35-254); experiment: SPR
T2 chain: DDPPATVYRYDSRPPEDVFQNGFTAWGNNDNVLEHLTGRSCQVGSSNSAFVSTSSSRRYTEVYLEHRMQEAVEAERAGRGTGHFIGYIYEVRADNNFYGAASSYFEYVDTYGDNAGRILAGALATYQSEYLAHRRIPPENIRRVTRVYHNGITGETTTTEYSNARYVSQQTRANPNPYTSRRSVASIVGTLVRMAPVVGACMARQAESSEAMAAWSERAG

[1] = biological target: pertussis toxin B-oligomer (Bordetella pertussis), P04978; experiment: ELISA repeated with mAb 1B7; conditions: remark: other sources report otherwise
PTx-S1-220 E155A = biological target: T3, PTx-S1-220 E155A (Bordetella pertussis strain Tohama I, UniProt P04977 36-255, E155A); experiment: SPR, mAb 1B7 immobilised ~1000 RU
T3 sequence: T1 sequence with E154A, I193M

PTx-S1-220 T156A = biological target: T4, PTx-S1-220 T156A (Bordetella pertussis strain Tohama I, UniProt P04977 36-255, T156A); experiment: SPR, mAb 1B7 immobilised ~1000 RU
T4 sequence: T1 sequence with T155A, I193M

PTx-S1-220 E210A = biological target: T5, PTx-S1-220 E210A (Bordetella pertussis strain Tohama I, UniProt P04977 36-255, E210A); experiment: SPR, mAb 1B7 immobilised ~1000 RU
T5 sequence: T1 sequence with I193M, E209A

PTx-S1-220 Y166A = biological target: T6, PTx-S1-220 Y166A (Bordetella pertussis strain Tohama I, UniProt P04977 36-255, Y166A); experiment: SPR, mAb 1B7 immobilised ~1000 RU
T6 sequence: T1 sequence with Y165A, I193M

PTx-S1-220 T153A = biological target: T7, PTx-S1-220 T153A (Bordetella pertussis strain Tohama I, UniProt P04977 36-255, T153A); experiment: SPR, mAb 1B7 immobilised ~1000 RU
T7 sequence: T1 sequence with T152A, I193M

PTx-S1-220 H83A = biological target: T8, PTx-S1-220 H83A (Bordetella pertussis strain Tohama I, UniProt P04977 36-255, H83A); experiment: SPR, mAb 1B7 immobilised ~1000 RU
T8 sequence: T1 sequence with H82A, I193M

[2] = biological target: PTx-S1-220, truncated recombinant S1 subunit (residues 1-220) (Bordetella pertussis strain Tohama I), P04977; experiment: SPR BIAcore 3000, mAb 1B7 immobilised ~1000 RU; conditions: remark: other sources report otherwise
[3] = biological target: pertussis toxin B-oligomer (Bordetella pertussis), P04978; experiment: SPR BIAcore 3000, mAb 1B7 immobilised ~1000 RU; conditions: remark: other sources report otherwise
[4] = biological target: pertussis toxin holotoxin (Bordetella pertussis), P04977; experiment: SPR BIAcore 3000, mAb 1B7 immobilised ~1000 RU; conditions: remark: other sources report otherwise

B1: monoclonal antibody 1B7 (antibody)
chain: DIQMTQSPALMSASPGEKVTMTCSASSSVSFMYWYQQKPRSSPKPWIYLTSNLPSGVPARFSGSGSGTSYSLTISSMEAEDAATYYCQQWSSHPPTFGSGTKLEIKRGGGGSGGGGSGGGGSGGGGSEVQLQQSGSELVRPGASVKLSCKASGYKFTSYWMHWVKQRPGQGLEWIGNIFPGSGSTNYDEKFNSKATLTVDTSSNTAYMQLSSLTSEDSAVYYCTRWLSGAYFDYWGQGTTLTVSSASGA
notes: also called mAb 1B7; 1B7 mAb
For B1, the “fold decrease in off-rate versus WT PTx-S1-220” value (PTx-S1A (1-220)) was ~2 fold, the “fold decrease in off-rate versus WT PTx-S1-220” value (PTx-S1D (1-220)) was ~2 fold and the EC50-PTx (%) [1] was 30%. For the same binder, the koff (PTx-S1-220 E155A) was 0.0011 s⁻¹, the koff (PTx-S1-220 T156A) was 0.0011 s⁻¹ and the koff (PTx-S1-220 E210A) was 0.0016 s⁻¹. It also gave a koff (PTx-S1-220 Y166A) of 0.0014 s⁻¹, a koff (PTx-S1-220 T153A) of 0.002 s⁻¹ and a koff (PTx-S1-220 H83A) of 0.01 s⁻¹. For the same binder, the koff [2] was 0.0014 s⁻¹, the koff [3] was 0.0027 s⁻¹ and the koff [4] was 0.0004 s⁻¹.
